Publication doi:10.1101/2021.06.09.447781 (bioRxiv, 2021)

Experiments:
negative-stain EM = target: the molecule itself; experiment: negative-stain EM
cryo-EM structure [1] = target: the molecule itself; experiment: cryo-EM structure
cryo-EM structure [2] = target: the molecule itself; experiment: cryo-EM structure; remark: listed apart in the source

B1: B. subtilis ClpCDWB (E280A/E618A), catalytically inactive mutant (enzyme, UniProt P37571 1-810, looked up)
chain: MMFGRFTERAQKVLALAQEEALRLGHNNIGTEHILLGLVREGEGIAAKALQALGLGSEKIQKEVESLIGRGQEMSQTIHYTPRAKKVIELSMDEARKLGHSYVGTEHILLGLIREGEGVAARVLNNLGVSLNKARQQVLQLLGSNETGSSAAGTNSNANTPTLDSLARDLTAIAKEDSLDPVIGRSKEIQRVIEVLSRRTKNNPVLIGEPGVGKTAIAEGLAQQIINNEVPEILRDKRVMTLDMGTVVAGTKYRGEFEDRLKKVMDEIRQAGNIILFIDALHTLIGAGGAEGAIDASNILKPSLARGELQCIGATTLDEYRKYIEKDAALERRFQPIQVDQPSVDESIQILQGLRDRYEAHHRVSITDDAIEAAVKLSDRYISDRFLPDKAIDLIDEAGSKVRLRSFTTPPNLKELEQKLDEVRKEKDAAVQSQEFEKAASLRDTEQRLREQVEDTKKSWKEKQGQENSEVTVDDIAMVVSSWTGVPVSKIAQTETDKLLNMENILHSRVIGQDEAVVAVAKAVRRARAGLKDPKRPIGSFIFLGPTGVGKTELARALAESIFGDEESMIRIDMSEYMEKHSTSRLVGSPPGYVGYDEGGQLTEKVRRKPYSVVLLDAIEKAHPDVFNILLQVLEDGRLTDSKGRTVDFRNTILIMTSNVGASELKRNKYVGFNVQDETQNHKDMKDKVMGELKRAFRPEFINRIDEIIVFHSLEKKHLTEIVSLMSDQLTKRLKEQDLSIELTDAAKAKVAEEGVDLEYGARPLRRAIQKHVEDRLSEELLRGNIHKGQHIVLDVEDGEFVVKTTAKTN
negative-stain EM
  stoichiometry N: 10
cryo-EM structure [1]
  stoichiometry N: 24
cryo-EM structure [2]
  stoichiometry N: 6
